Results: PMC8639797 (Nature, 2021)

Molecular target: T1, trx-ALKAL2-AD^RC (K94E/K96E/K99E/H100E) (human, UniProt Q6UX46 77-152, K94E | K96E | K99E | H100E)
T1 sequence (looked up): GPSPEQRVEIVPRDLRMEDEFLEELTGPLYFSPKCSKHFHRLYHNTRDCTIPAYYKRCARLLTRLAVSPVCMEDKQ
Assay: BLI

binding result: binds
B1: site-specifically biotinylated ALK-ECR^ABR (from Fc-ALKavi) (domain or fragment, human)
chain: QTPIFDPTVHWLFTTCGASGPHGPTQAQCNNAYQNSNLSVEVGSEGPLKGIQIWKVPATDTYSISGYGAAGGKGGKNTMMRSHGVSVLGIFNLEKDDMLYILVGQQGEDACPSTNQLIQKVCIGENNVIEEEIRVNRSVHEWAGGGGGGGGATYVFKMKDGVPVPLIIAAGGGGRAYGAKTDTFHPERLENNSSVLGLNGNSGAAGGGGGWNDNTSLLWAGKSLQEGATGGHSCPQAMKKWGWETRGGFGGGGGGCSSGGGGGGYIGGNAASNNDPEMDGEDGVSFISPLGILYTPALKVMEGHGEVNIKHYLNCSHCEVDECHMDPESHKVICFCDHGTVLAEDGVSCIVSP
modifications: biotin on the C-terminal biotin acceptor peptide (co-expressed BirA)
